From a protein production outcome set (Wang et al. 2014)

Assay: label from the status in PepcDB records

Sequence	protein production
MQIFLLFLSFAKAIHKIILIYGETAFPTVCSALQIYSLMKLKTLICATTAFWACCSCTSGELSPVDYVDPFIGTGFHGHTYPGATVPFGAVQLSPDTRAGNWDACSGYHYNDTTLKGFSHTHLSGTGCIDLGDILFRPTTLKPDLTTESIYQPAAFSHKDEDASAGYYSVVLKEEGIKAELTVTAHAGMHRYTFSSGKEASIIIDLTHLLDNEYIYEAELEQTAANEITGMRRTRGWTDNQYVYFVAQFSKPFQAIDFIQNKKMVSAGVKLNGTDLQACLSFDNSNGEPVIAKVGLSIVSEKNARENLETEVIGFDFDAVRSAARSAWEQALSAITVKGGNTDDLKNFYTAMYHSMVVPNVVSDVNGEYRRHNMEIGQLPKGKVQYSTFSLWDTFRAWNPLMTLIDTTLVNNMINSFLDIYESSGELPIWPLSAGETGTMIGYHAVSVIADAYMKGIRGFDAEKALEAMVVSSEKNKKGADYYIQNGFIPSNIKKESISCLLEFAYDDWCIARMAQEMGKDDIYQKYIQRSQNYINVFDGNTKFFRPKRMDGNWETPFNPIEIGRAYTEATAWQYRFFVPHDVSGMAQLFGGKKEFITALDSIFTVESDVHGDLVDITGLIGQYVHGNEPSHHIAYLYDYVGQPWKTQEMTRRLLHEMYAPTPEGIIGNEDCGQMSGWYILSSLGIYSVCPGSNEFALTTPLFEKAVVNLANRKTLTILANNPKKNVYITKVELNGQPIDVNFITYAQLMEGGELRFTLSDKPNMERGVSSEASPYSYTKDEVVSIPYVDKDLNLFMDKVTVALATTTKDAEIRYTLDGSEPTEQSALYEQPFELDKTTLIKAKGFKEGLRSSRTLSISATKAELKAALSVNPTQNGTSYKYFEGTYQKVADVEKSPLLESGVMPEPSIKGAKQEDHFGYIFSGLINVPEDGVYTFQTRSDDGSVLYIHDEQVVNNDASHAAIPATGMVALKKGFHPYKLYYFEDYEGEYLSWAWKLPSAEKLAPIPASALFVK	failed
MQITAAAQHDYQQAIAAYQAGEFEAAIAQLDRLLGDVPDWAAALGLQGLCYYCCDQRETGITLLRRAIALDPTDPTHFNNLGNLLQRQGHLTEALERLTQALAIDPTHVAARFNRAITLQKLGDPATALQDYQQLLEADPDNPEIRYNSAHAALAIGDWDFGLPAYEARCQQLQHFPEIEASLKLPRWQGQDLDQQTLLVWGEQGFGDRLMGARWIPLLRQRYPQARIVWQTSPSLVRLFQTLADDRLMVLAEGAELPVCDWQVPLLSLMLIFQSDRNRLPWHGPYFFPHKGDFLPASDRPRLGLVWSAGRNPAQSAEFAANKSCPLALLWSVLSVSGWDVVSLQVDEARQDLQTLSDPLLDLGSEIGDFQDTVDRLAHLDLLITVDTAIAHLGGMIGLPTWVLLPAVPDWRWELSGATTPWYPSLRLFRQPSPGDWSGAIAELQTALAEFQPAPQHWDYRGELSIADWIQAADRAFTAQNWPRAEWLIRQAVAIAPEEPSFHRALGRSLKQQGDYAGAAQALAIACELAPTQAEFWHERSSLEYYDNQLTAALNSLNQAIALQGATADHLISRGVLHYRLGQFPESCADYDAAAAIAPESPLLRCNRGFLQLHWGNWLQGWPDLEVRFDFQSDLDPFQYRQLAPAWQGEPLGQQTLLIWGEQGLGDHLLFCRWLPELRLQHPQAQLIFVTDPLLERLMQQLADDRLQICCLDEPVPACDRQVALMSLPAIAQTTPATVPWRGAYFQSSMPPLRCAETLQVGFVWASGKRSSPETARLYREKSCPLNELLPALLAVPAVDYYSFQVGADVAELQPWLEQSDRLFDLSEQLQDFQDTADWLAEMDVLISVDTAVANLAGMMALPVWTLLPEPANWRWGLTGHTTPWYPSMRLYRQTQRGNWSGAIAQIQQDLQQLSRDRDCLVT	failed
MQKIALCITGASGVIYGIKLLQVLEELDFSVDLVISRNAKVVLKEEHSLTFEEVLKGLKNVRIHEENDFTSPLASGSRLVHYRGVYVVPCSTNTLSCIANGINKNLIHRVGEVALKERVPLVLLVREAPYNEIHLENMLKITRMGGVVVPASPAFYHKPQSIDDMINFVVGKLLDVLRIEHNLYKRWRG	not failed
MQKQLLLGVEAIAQAALDAGISGVYAYPGTPSTEITEHIQNSRMAKERNVHREWAANEKTAMESALGMSYAGKRALVCMKHVGMNVAADCFMNAAITGANGGMVIVAADDPSMHSSQNEQDSRVYGQFAMIPVMEPSNQQEAYDMTRLAFDLSERLGTPVMMRITTRLAHSRAGVVQTEPIGENELHLPEDKRQYVLLPGIAKKRYRILLDKQTDFVRESENSPYTEYVDAADKSKGIVACGIAYNYLMEAFKAQVPYPVLKVTQYPIPHKQMERLLNECGDIVVMEEGYPVVEQLLKGFPGLERIKGRLDGTLPRDGELNPDHVAKAFNIPVVEGEPIPDLVAARPPALCKGCSHRDVYDALNEVLTEYPNGRVFSDIGCYTLGALPPYEAINSCVDMGASITMAKGAADAGLFPAVSVIGDSTFTHSGITGLLDAINENSNITVIISDNESISMTGGQHSSAYGKVEAICRGIGVDPDHIRELLPVPKNHDELCSIIREEINYEGVSVIIPRRVCIQKHARDAKAAKRAKAKE	not failed
MQKSEGSGGTQLKNRATGNYDQRTSSSTQLKHRNAVQGSKSSLSTSSPESARKLHPRPSDKLNPKTINPFGEQSRVPSAFAAIYSKGGIPCRLVHGSVKHRLQWECPPESLSFDPLLITLAEGLRETKHPYTFVSKEGFRELLLVKGAPEKAIPLLPRLIPVLKAALVHSDDEVFERGLNALVQLSVVVGPSLNDHLKHLLTSGSLSIIKSKIPTYCSICC	failed
MQKTLTSAIDIPEQMQNDWQNMLDILSNVINVPAALIMRIYDNDIKVFSSSSSTENPYIKGATEKLNQGLYCETVIEERQELTVFNALVDPEWRSNPDLKQNMIAYCGLPLYWPDNTPFGTLCILDKKENHFSPTYQKLMKTYQHSIEAQLNTLYQHADLLNRHQELQAEVARTTQHLNEINIKLSNEIDCRRAAEQKVEYHKNHDVNTGFLNPIAIHKHVDSLIKSETKFVLLHIHFANSRKIQQEYGYQAFDSLLIEYRSKLTKITDTSVTGRLGSSDILLIIQTDKEKLPQLCQHLSEIGQANYTANEQSLHLQTYVGAVHSKEGISRSDLLQFAYDTVVKCQSLGKTFTIADVSLPTQSSLSEHKIERYLLEAVRNHDLFLNYQPKVCPVNKKWIGCEALLRWNHPHLGAIANDVLIQLAERNGLIYELGNFALRNAIQQASEWILHSPNFVMAVNISAVQLKDPHFVTHIKQLLSLYQLPSKNLELEVTESGLISDEPLAITTLSQLNNMGISIALDDFGTGYASFQYLKKYPFSSLKIDKSFIANIEQNEDDQNIVCAMINIAKKLQLKVVVEGVENQNQEAFVVKEGIDLIQGYLYSKPISATDFEEGLFNQSSIGTPYFHFV	failed
MQLFHKTVNRRGTHSIKWDTYKNEELIHAWIADMDFEVPQPIQTALKKRIEHPIFGYTLPPENIGDIICNWTKKQYNWDIQKEWIVFSAGIVPALSTSIQAFTKENESVLVQPPIYPPFFEMVTTNNRQLCVSPLQKQNDTYAIDFEHLEKQFQQGVKLMLLCSPHNPIGRVWKKEELTKLGSLCTKYNVIVVADEIHSDIIYADHTHTPFASLSEELAARTITCMAPSKTFNIAGLQASIIIIPNEKLRQAFTSIQYRQGFHGLNIFAYTAMQSAYTECNDWLNEIRFYIEDNAKFACEYIKDHIPTLSVMKPEGSFLLWIDCSALNLSQDERTKLLEEKGKIIVEPGEKYGLGGEEHIGINIGCPRSVLEEILNRLRHTFS	not failed
MQLGFAMLADPILLITILLGFAMAWAIGANDAANSMSTAVGAGAITPRQAVIIAGVLEFMGAYFFGKTVTETIRKGIIDPSKITDPNVLIFGSIAALIGATIWLVIATKYGLPVSTTHSIIGGIVGYGIVYGGMSIVNWDKMIKVVLSWILSPIVGAIFAYLVFRALSKTVLQSKDPVKSAKRWSPFWIGLAFVVIGTMFYIKVLHGNSLLEGFLKYGMPAGILTFIVVSLILEKRFPATDPYLGAERVFRRVQVITSAYVALAHGANDVANAIGPVAAVYTVAMFGLAGAKVPVPRWILALGGLGIAIGVATYGYKVMETVGKKITELTNTRGFTIDFSAATVVLIASWLGMPISTTHTVVGAVIGVGLARGIKAINKDIVKDIIISWFVTVPAAGVIAGIIFKALMMLMG	failed
MQLPPIPDNELQRLSTLKALNILDTNAEERFDRITRLTRRIFALPICVVTLVDASRQWFKSCQGLEVTETSRDISFCGHAINHDGIFIVNDAQMDPRFHDNPLVTQSPHIRFYAGYPLTIRGEYRVGTLCLIGNEPREFSADDIETLTDLGQMVEAELLSISLNTLDPLTMISNRRGFEQLAFQSLASCRRTNSQAALVFFDLDFFKELNDSFGHRKGDQVLYDFAHLLMAAFRESDVIARLGGDEFVVLLSFVKIDAVHVAIERFQSLLEQYNQQHPQQPTLVSSIGVAHWSPELDINLEDLLDAADRAMYQDKAEHHLNKPE	failed
MQLQVMNSPFNQEQAELLNRLLPTLTESQKIWLSGYLSAQSVSAQEAAGTPAAAVSAEAPAPAVSKEVTVLYGSQTGNAQGLAENAGKQLEQSGFQVTVSSMSDFKPNQLKKVTNLLIVVSTHGEGEPPDNALSFHEFLHGRRAPKLEDLRFSVLALGDSSYEFFCQTGKEFDQRLEELGGKRISPRVDCDLDYDEPAAEWLEGVLKGLNEAGGGSAAPAPAAASQTGESSYSRTNPFRAEVLENLNLNGRGSNKETRHVELSLEGSGLTYEPGDSLGVYPENDPELVELLLKEMNWDPEEIVTLNKQGDVRPLKEALISHYEITVLTKPLLEQAAQLTGNDELRELLAPGNEENVKAYIEGRDLLDLVRDYGPFSVSAQEFVSILRKMPARLYSIASSLSANPDEVHLTIGAVRYDAHGRERKGVCSILCAERLQPGDTLPVYVQHNQNFKLPKDPETPIIMVGPGTGVAPFRSFMQEREETGAEGKAWMFFGDQHFVTDFLYQTEWQNWLKDGVLTKMDVAFSRDTEEKVYVQHRMLEHSAELFEWLQEGAAVYICGDEKHMAHDVHNTLLEIIEKEGNMSREEAEAYLADMQQQKRYQRDVY	failed
MQLSHRPAETGDLETVAGFPQDRDELFYCYPKAIWPFSVAQLAAAIAERRGSTVAVHDGQVLGFANFYQWQHGDFCALGNMMVAPAARGLGVARYLIGVMENLAREQYKARLMKISCFNANAAGLLLYTQLGYQPRAIAERHDPDGRRVALIQMDKPLEP	not failed
MQMKKDFGYIRVGVASCELKVANPNYNVKSIISIMKKAYRRHHIKVLVFPELCVTGYTCGDLFNQNLLIKRAENELNNLLVSTSNINMITAVGMPVKADNQLFNCAVIINNGNILGVVPKTFIPTYNEFYEKRNFAGAISRISDEIILCGKKVPFGENLLFKDIYSELCIGIDICEDLWVNIPPSSYHTLNGANLILNLSASDEIVAKSDYRRDLVRLQSAKCITSYAYASSGQTESTSDLVFSGHSIIADNGSILKDIKFEEASYVKYADVDIEKLISDRIKFNTYMGRIEDKEYRTINFHLGYNENMHLERYVEASPFVPSNKSKRNIRCREILDLQASGLYQRLNKTGINKAVVGISGGLDSTLALLVIVEAFKKLKAPMKNIIGITMPGFGTTRRTYNNAVELMKKLGITIKEISIKKACIQHFNDIGQDLNTHDTIYENSQARERTQILMDIANKEGAIVVGTGDLSELALGWCTYNGDQMSMYGVNSSIPKTLVKYLIMWYAEASKDNDIRNILLDIYNTPVSPELLPPDKEGNIKQKTEDLIGSYELNDFFLYNMLRSGYEPLKILYLANIAFKDKYSEDVIHSALKNFYKRFFTQQFKRNCMPDGVKIGSVSLSPRGDLRMPSDASYGLWMDEL	failed
MQMLRNLSTRTRSRRGGYERVSDDSTFSLLGAKLRRSTSVPYYAPSIRLGGDFPVILEKLPRQKPTKTVVTSKLSHPIFSLFDGYRRHNKKKATAKPEFSRYHEYLKESGMWDLRSNSPVIYFK	failed
MQNIARNISNRLAGFVYRQMRKAHANANSTVGYSVNANGALLAGCVIDCRSGKSDGRVFFGKDSVLSCRIVLERDVGTVHIGNDSYVGGSQIICADHIEIGNNVLISWGCTIVDHDSHSVDWRNRAEDVRKWREGLLSGGLEKASESKDWAVVEKAPIKIGDKTWLGMNVTVLKGITIGEGAVVAAGSVVTKDVDPWTLVAGNPARVIKELPKS	failed
